Data set [1] concerns the target hORC1-5;hCDC6;hCDT1deltaN;hMCM2-7 (human;human;human;human) (UniProt Q13415+Q13416+Q9UBD5+O43929+O43913+Q99741+Q9H211+P49736+P25205+P33991+P33992+Q14566+P33993). Put plainly: bead pull-down (pre-RC assay). Conditions: ATP, high-salt wash, no hORC6; CDT1 form inferred; 25 mM HEPES-KOH pH 7.5, 250 mM KGlu, 1 mM DTT, 4 mM MgOAc, 0.1% Triton X-100, 1 mM ATP or ATPgS, 30 C; high-salt wash adds 300 mM NaCl; in-solution: …; scale: fold reduction of hMCM2-7 signal vs with hORC6.

Data set [2] addresses hORC1-5;hORC6;hCDC6;hCDT1deltaN;hMCM2-7 (human;human;human;human;human) (UniProt Q13415+Q13416+Q9UBD5+O43929+O43913+Q9Y5N6+Q99741+Q9H211+P49736+P25205+P33991+P33992+Q14566+P33993). Put plainly: bead pull-down (pre-RC assay). Conditions: ATP, high-salt wash; CDT1 form inferred; 25 mM HEPES-KOH pH 7.5, 250 mM KGlu, 1 mM DTT, 4 mM MgOAc, 0.1% Triton X-100, 1 mM ATP or ATPgS, 30 C; high-salt wash adds 300 mM NaCl; in-solution: …; scale: fold higher hMCM2-7 signal than without hORC6.

The target of data set [3] is budding yeast MCM2-7 complex (budding yeast) (UniProt P29469). Put plainly: negative-stain EM (2D class averages); eluates of pre-RC reactions with ATP washed with 300 mM NaCl (high salt); complexes on DNA.

For “lamin B2 origin DNA for pre-RC / hOCCM (2 or 3 kbp)”, the binding signal in data set [1] and in data set [2] was 1.8 in each case. Take “budding yeast MCM2-7 complex, P29469 1-868; P24279 1-971; P30665 1-933; P29496 1-775; P53091 1-1017; P38132 1-845”: the percent of particles in double-hexamer class averages in data set [3] came to 91%.

(Values after article PMC11711466.)
